According to the DeepSol protein solubility set:

Experiment: soluble on expression in E. coli; label from the status in PepcDB or PDB records

Soluble on expression in E. coli, not soluble:
MGSDKIHHHHHHMTEKEIVDYIKNNDIQKIKFAFADIDGVLRGKLIHTDKFLDGLKEGLGFCDVVFGWDSADAGYDNVSATGWHTGYPDKLAQIDLSTFRLIPWENNTPFFLADYKNNDQTALPICPRTLLKRIAQECSAMGYHAAFAQEFEWFNFRETQQSLVEKNFHDLTPLTNGMFGYSILRPSLEDAYYNDLFDLLGAFDIPLEGLHTETGPGVYECAYFHDEVVRAADKATLLKTAVKEIANKHGIIATFMAKISDKLPGCSGHIHQSLWNTGKTENLFYDPNQEHNMSDLFKHYVAGQLYCLPHIVPMLAPTVNSYKRLVEGAWAPTTLTWGFDNRTTALRVLNHSKKTARLEQRVSGSDTNPYLAIAASLASGLYGIKHKLSLDVPPTTGNGYANKSNGSIASNLMDATQLMKNSSIAKELFGEAFVQHFTATREWEWRQFSKHVSDWEMKRYMEII
MGSDKIHHHHHHMTETWNFINTGSKDPYYNMAMDEALLNFVSRGEIDPVIRFYTWNPATLSIGYFQRLQKEIDIDKVKEKGFGLVRRQTGGRGVLHDKELTYSVIVPESHPNMPSTVTEAYRVISQGLLEGFKNLGFNTYFAVPKTPEERQKLKQPRSSVCFDAPSWYELVVEGRKIAGSAQTRQKGVILQHGSILQDIDIDELFDMFIYKNERLKLKMKEAFVEKAVAINDISDKHITISQMEEAFEKGFKKGLNIELKPLELTEAQLAEVEELTEKYRSDEWMFRK
MGSDKIHHHHHHMTEWVPVIYGIGLDAAGRCQHYHLETDIAALWCRRCQHYYACYRCHDTLCQHTFVASAPTDLAVMCGACRYRMTVDRYHEGQCPHCHRPFNPRCRLHDQVYFEK
MGSDKIHHHHHHMTGDATPPVGLRFAQDKTHEVFMKRYRHTQILALLETRSAIRATEAAEMLGVSVGTIRRDMAELEAGGYLNRTHGGAFAAIEGEAGFMRRTCWNRDKKRVIGQAAAAHISSGSVVFIDGGTTPEAMLPFLVEKTSLTVVTCGLNIALQLLRWPYISTILLGGEVHAESRTVTGTLPVTQLDSFGMRFDMAVIATAGISAEHGATNRMLERLALKQLVLRNSASSILVGDSSKVNCAFLGRVAPLSAFSLCIMDDDLTDEQKAKLSEAGRFEFVPLEGSRRR
MGSDKIHHHHHHMTHPALIDELQALADPGKVLTDAGSLETYGKDWTRQFTPAPLAIVFPKTTEQVQAIVRWANERLVALVPSGGRTGLSAAAVAANGEVVVSFDYMNQVLELNLTDRTAVCQPGVITRQLQALAEDNGLYYPVDFASSGSSQIGGNIGTNAGGIKVIRYGMTRNWVAGLKVVTGKGDLLELNKDLIKNATGYDLRQLFIGAEGTLGFVVEATMRLDRAPKNLTAMVLGTTDFNSIMPVLHAFHGKLDLTAFEFFSDKSFARVMARGDVPSPFDTPCPFYVLLEFEATTEDLADQALATFEHCVEQGWVLDGVMSQSEQQLRNLWKLREYISETISHFTPYKNDISVSVSKVPEFLAEIDAIVAEYYPDFEVLWYGHIGDGNLHLNILKPENLDKDEFFVKCARVNKWVFETVEKYNGSISAEHGVGMTKRDYLTYSRSPVEIEYMKALKAVFDPNGIMNPGKIFAV
MGSDKIHHHHHHMTHPDGLFYQLIQDLAQGKGLPHLIWRLSQILNRPVLLTNSVHRVLVFHDPHHLNLDLDEFLYVPPVKLDEADFLNRSEHSLHHGQLTLNGQVFPFVYLPLLAGDYCLGYIFVLETYPLADSLKPKSLSAEDKETIFEASMPLLLCLKNSSEVSLRQEQYRDDFIRDILYNNYDSKAAIHEKAKSWGWNLQGSLLALVIDLPDRDFKTAREILPRLFNHSSPISAYINLQLVIILNINGLKKVKLKTALNNFINSFLDRLADHGKDRSSIGIGIGSGVPSITDLYKSYQEAKVAWELGKVFDHKSVCYFEEMGFLKFIFTQPARELEEFSQRVLGPLLEYDQAENTGLLDSLRVFIEYKCQIAECSKALYVHENTLRNRIKKIEQVTGFDLRRVDHMVNVYIALQVLNLGKDD
MGSDKIHHHHHHMTHPSVDQENLPQTASLPENIIEAAITWSIRLDYNDPTPETRQSFDQWLHADPLHRLAWQRVDSLNNLRNDCRSLPSRLAFDTLQEVDSRRQSRKLSRRNAMKLLSLAGITIATGWTVREHTPWQRLLADASTVTGEQRVLHLTDGTVVVLNTDSAVSFDLTEAQRLIVLQRGEMHITTGPDSEVSARIGRKRPFRVRTPFGELQALGTRFVVRLDEQHARVSVQEGAVELHPSAGGSSAIVQAGESRRLTGSSILPEADRYFEEDGWVSGVIAGKNIRLADLVAELSRYRPGYIVCDERVADLPISGIFHVKDTDKALQFLAQTQPVSVMYRTRFWVIVGPKSLYR
MGSDKIHHHHHHMTINQEHLTDCKLCKAHSWELVATLISGIWDKRHDELNREELRFPIGQCTKCHHVQVAIPYTQSIFDSLYFSNQAEPDMWCETPNGQKSPYEEMLEFIAPYIQDGAHIVDFGAGAGTTLKHIENTHKERQLTLASVDFHNHIQSETIEYLSADLNKLEALQAEFVTQPISLAISTHVLEHLIDPIHFLTQIRSMLSDDGHIFIEVPDCSPDAFIEHLAFTNLVHGQHIHYYSKDSLAQIARLAGLKIDALQQLTTGDIPRLLILLSKTTQESSTTVLPVTSGADVAVVKRFNDYHAFQDSLFKQIQQALMLNDTIGIWGIGGDFYQLTQSYPELIDLIQANSIILYDYELAGHTYVGSSIRCSSAIASTRYPVFMLPLYAPTREKMHQVSQSWSAQVIDPF
MGSDKIHHHHHHMTIRYTFGGDEFIFVEISESMSLDAFFKGTAITRELRRRNVPGVTEICPANASYQVRYDPDVIEPDTLLALLKTIEAEVGEAALNIDTRIVEVPVLYNDPWTHETLMRFRERHQAPESTDLEYAARVNGKRDIDEFIAAHAGSPWFVSMVGFVAGLPFMYQMVERERQLQVPKYLRPRTDTPKLTVGHGGCFGCIYSVRGAGGYQMFGVTPAPIFDPAQRLDYLRDFMVFFRPGDIVKFKPIDRAEYDAAVAAVEAGTFTLRVKPVRFALEAFLRDPHAYNRSLVEVLDAN
MGSDKIHHHHHHMTKAVAETLESKAAKAAPMDRLWAENDDSRVTGDPSLVVDVAGFEGPLDLLLHLARTQKVDLARISILALVEQYLAFVETARALRLELAADYLVMAAWLAFLKSKLLIPKQPGEEGESGEELAAVLQFRLKRLEAMRDAAARLVNRNRLGRDVFARGMPEMVIIEKRNAYSASLYDLLTAYAQQRQKQAVTNVTIARRGVWSLKDARDILTRLIGSLRDWTALDSFLIRYMTSPEERRTAIASSFAATLELVRERKMDLRQDEVFAPIYLRDHRAPAIKAVEVAS
MGSDKIHHHHHHMTKEFTPILLGSDINVYGMARSFNEAYGIRVKALADVQLAATRYSKIVDVELHHGFSADPTFMDVMRKKMEIYKDHKEPVILIACGDGYAELLSKHKDELSKVFIVPYIEYDLLEKLISKEGFYEVAEEYGLPYPKTKIITMDDYKSGKYKDVPFQFPVELKPEDPVSWLNCQFEGRKKTFTLHDENEFEDIVTKIYTHGYTEDLILQDFIPGDDSNMRTLNAYVDKNHQVKMMCLGHPLLEDPTPQSIGNYMTILPAYDEKLYEQVQSFLEKLNYTGMANFDIKYDERDGQYKFFEINLRQGRSSFYVTLNGYNLAKWYIDDYVEDNLSDKKTVYGNKLKSKHVLWMGVPVKIFKEYAFENEAKDTAEELIHEGRYGTTVFYDKDRSLKRWLLMKYMFHNYFARYKKYYEVNKGQYFKKNK
MGSDKIHHHHHHMTKIGEKRYIFYLTNTKIDQSIMLSELKTFIAVSQYGTFSGAGARIGLTQSAVSAQMQRLEEELGFALFDRTGRSATLNDAGRETLALAEEMMTLYARLSERGAVAAESGMLRVGAIASAQVSFLADALARFRDDRPGWRIRVVPGVSLGLLGQVDSGELDLAVIIKPPFALPSELEWRTLVTEPFVLLVPKALVRGKGNARSWRELLRSEPFIRYDRTSFGGRLVDRFLRRSRLNVHDVIELDELQGIVQLVARGIGVALIPDSAGLGKWPAGVAALELGEATFQREIGLVQRPRHSRQAVAGVLADCIGTAAGV
MGSDKIHHHHHHMTKRAVVAGINDYRNWNSVGFGNLSWCLTDAQSFAEDVLVHGRGFRPDDITVLLDRDATRTNILEHLRRLLARADLGDVICLYFSGHGDRAQVPGTPSEWHETIVPYDGAAMISDHEINALIAGLEFNRLNLTLVLDSCHSGGVYDPAPPQGSKVAQWGEDKLGALVSTCKTILPTICAQTVDPFVNNIQAILRAVDSATMTVDGAKDTAETAKATLFSACDFDETAKENPTLRHGFMTKALLDTVTQSAFKMPNRLLASDLRGKVAAFVSQFGTSQQTPCLRGRPVRQDEDFLTEWTFSI
MGSDKIHHHHHHMTLEHRWTGAISRLDLASGVLQQPDGDWVDEQLHHGTKVVVILRGAMRALIDGCGSEFSIAGPTVCVIRAPADASGRQMITADEPLHYVMVKAAFEPGSEADRERDPLAPLFCTDRPSLQHIEAPRALQALCTQLEVCPFVGAARDLFLSAKAIEILALACDAVETNIATETLRPSLGDVERLKKARAILLERLGAPPNLPALAAAVGMNPRKLTDGFQAAFGTTVNDFLQDARLNEAYRLLSSGATNVSEAAHRVGYTPAYFSAVFRKRFGISPRDLL
MGSDKIHHHHHHMTLELCRLSLQQTQELLRLTDATLKNICSRRFSGEELYSEAIRRVLGGGGKRGPESIFLLIDGIGGTSRGWIFQLQAGELVRSSDEILVDADSVYSLGRLGSEVLVSNWRESFESIERYQVIFHPDIVKHIAKPIRNFVACQISGESNGALLAFNYAGEATEYDGDVLRGLSVVIGSLVTLSVMVRETEHAFIYTIEALARACEAAEESTGDHIVRVNRYAGALAAHMDLSPDFVEVISYSAQMHDVGKIRVPTAILLKPGPLDEAEERVMRLHPEFGEQILGDSPRLSVAREIALSHHENWDGSGYPRGLQGEAIPLAGRIVKLADVYDALRSRRSYKKALSHAEARAVFLNGDERITPRSHFDPRVLETFFRIEPLFERIYQSSRNQQV
MGSDKIHHHHHHMTLGTKLSVDQEYLKSFSEKHQEPAWLKNLRLQALEQAEDLPMPKPDKTKITNWNFTNFAKHTVDNEPLSSLEDLTDEVKALIDIENEDKTLYVQRDQTPAHLSLSQELKDKGVIFTDILTAAREHSDLVEKYFMKDGVKVDEHKLTALHAALVNGGAFLYVPKNVQVETPVQAVYVHESNDTALFNHVLIVAEDHSSVTYVENYISTVNPKDAVFNIISEVITGDNASVTYGAVDNLSSGVTTYVNRRGAARGRDSKIEWALGLMNDGDTISENTTNLYGDGTYGDTKTVVVGRGEQTENFTTQIIHFGKASEGYILKHGVMKDSASSIFNGIGKIEHGASKANAEQESRVLMLSEKARGDANPILLIDEDDVTAGHAASVGRVDPIQLYYLMSRGIPKEEAERLVIYGFLAPVVNELPIEGVKKQLVSVIERKVK
MGSDKIHHHHHHMTLSFVTRWRDELPETYTALSPTPLNNARLIWHNTELANTLSIPSSLFKNGAGVWGGEALLPGMSPLAQVYSGHQFGVWAGQLGDGRGILLGEQLLADGTTMDWHLKGAGLTPYSRMGDGRAVLRSTIRESLASEAMHYLGIPTTRALSIVTSDSPVYRETAEPGAMLMRVAPSHLRFGHFEHFYYRRESEKVRQLADFAIRHYWSHLADDEDKYRLWFSDVVARTASLIAQWQTVGFAHGVMNTDNMSLLGLTLDYGPFGFLDDYEPGFICNHSDHQGRYSFDNQPAVALWNLQRLAQTLSPFVAVDALNEALDSYQQVLLTHYGERMRQKLGFMTEQKEDNALLNELFSLMARERSDYTRTFRMLSLTEQHSAASPLRDEFIDRAAFDDWFARYRGRLQQDEVSDSERQQLMQSVNPALVLRNWLAQRAIEAAEKGDMTELHRLHEALRNPFSDRDDDYVSRPPDWGKRLEVSCSS
